{"source": "patent US20220119464A1", "biological_target": "biotinylated L-form of SARS-CoV-2 HR1 (SARS-CoV-2)", "data": [{"binder": "SLDQINVTFLDLEYEMKKLEEAIKKLEESYIDLKEL (modifications not checked)", "note": "[L-form of EK1]", "values": [{"measurement": "Kd", "result": 23, "unit": "nM"}]}]}
